Consider one substance from paper PMC7772773.

The target in this assay is EGFP-RABL2B (UniProt Q9UNT1). In words: co-immunoprecipitation (IP anti-EGFP, Western blot anti-Myc), IP/input band quantitation. To be noted: lysates from HEK293T cells; Input is 2.5% of lysate used for IP; parent: 100.
Sequence of EGFP-RABL2B (Q9UNT1 whole entry): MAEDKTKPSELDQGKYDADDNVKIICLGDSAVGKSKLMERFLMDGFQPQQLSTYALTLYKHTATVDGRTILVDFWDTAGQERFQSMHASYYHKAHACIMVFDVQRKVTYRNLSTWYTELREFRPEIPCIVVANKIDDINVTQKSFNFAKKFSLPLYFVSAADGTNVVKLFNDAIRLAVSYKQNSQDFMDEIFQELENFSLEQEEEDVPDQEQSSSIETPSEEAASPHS

As for CD8α-(HTR6-IC3)-myc R216A; K217A; Q218A, the percent of parent stood at 29%.
